Blank lines part the entries; values can stand above or below the binder they belong to.
How the values were obtained:
[1] = molecular target: T1, recombinant cynomolgus uPAR ECD with C-terminal His tag (cynomolgus monkey, UniProt Q9GK78 23-303); assay: KinExA, solution equilibrium, human uPAR beads capture free antibody
T1 construct: Used as conditioned medium of transfected HEK293 cells
Procedure: Kinetic measurements of several of the antibodies were evaluated using the KinExA® method. This method involves solution-based determination of formal affinity measurements at equilibrium. […] The remaining active groups on the beads were blocked with 10 mg/ml BSA in 1 M Tris and stored in the blocking solution as recommended by the manufacturer. KinExA experiments were performed using an automated flow immunoassay system, KinExA 3000, in which beads coupled with human uPAR served as the solid phase.
The mixture was drawn through the human uPAR-coupled beads to accumulate unbound antibody. The captured antibody was detected using solutions containing a Cy5-conjugated goat anti-human IgG heavy and light chain specific secondary antibody in sample buffer. […] Three replicates of each sample were measured for all equilibrium experiments. The equilibrium dissociation constant (KD) was obtained from nonlinear regression analysis of the data using a one-site homogeneous binding model with an unknown ligand concentration contained within the KinExA software.

[2] = molecular target: T2, soluble recombinant human uPAR/His6 (R&D Systems, Cat. # 807-UK-100) (human, UniProt Q03405 23-303); assay: low resolution Biacore, mAb captured by goat anti-human, hu-uPAR 312 nM;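 also: surface plasmon resonance on a CM5 chip with goat anti-human antibody surface made by amine coupling, each mAb from supernatant captured per flow cell, kinetics fitted including mass transport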
T2 construct: range 1-303; Bought protein; also called soluble uPAR; hu-uPAR
Procedure: A high-density goat anti-human antibody surface over a CM5 Biacore™ chip was prepared using routine amine coupling. […] Each mAb was captured on a separate flow cell using a 30-second contact time at 10 μL/min followed by a 5-minute wash at a 100 μL/min flow rate for stabilization of the mAb baseline. […] All antigen samples were prepared in the running buffer.
A mass transport coefficient was used in fitting the data.

[3] = molecular target: T3, lane 4: human DI/DII-murine DIII uPAR chimera (His-tagged); assay: Western blot of HEK293T culture supernatants with His-tagged uPAR proteins, probed with the antibody
T3 construct: The sheet prints only the lane number; also called Human D1D2/Murine D3; human D1D2/murineD3uPAR
T3 uPAR ECD chimera: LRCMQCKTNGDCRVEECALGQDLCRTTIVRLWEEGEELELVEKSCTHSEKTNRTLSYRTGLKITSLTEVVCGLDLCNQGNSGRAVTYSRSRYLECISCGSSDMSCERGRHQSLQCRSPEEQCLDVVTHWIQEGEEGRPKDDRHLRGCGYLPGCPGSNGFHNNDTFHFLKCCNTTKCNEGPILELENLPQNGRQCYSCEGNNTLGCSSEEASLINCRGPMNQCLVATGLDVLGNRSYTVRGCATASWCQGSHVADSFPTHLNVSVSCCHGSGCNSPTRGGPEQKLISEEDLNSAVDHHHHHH
Source text: (§1) Human-murine uPAR chimeras (His-tagged) were expressed in BEK293T cells and uPAR expression was detected using the anti-human uPAR mAbs as indicated.
(§2) Chimeric human-murine uPAR comprising murine D1/humanD2D3; murine D1/human D2/MuD3; and human D1D2/murineD3uPAR each with a C-terminal His tag were expressed as secreted proteins in HEK293T cells.

[4] = molecular target: T4, lane 1: murine DI/DIII-human DII uPAR chimera (His-tagged); assay: as above
T4 construct: The sheet prints only the lane number; also called Murine D1/Human D2/Murine D3; murine D1/human D2/MuD3
T4 uPAR ECD chimera: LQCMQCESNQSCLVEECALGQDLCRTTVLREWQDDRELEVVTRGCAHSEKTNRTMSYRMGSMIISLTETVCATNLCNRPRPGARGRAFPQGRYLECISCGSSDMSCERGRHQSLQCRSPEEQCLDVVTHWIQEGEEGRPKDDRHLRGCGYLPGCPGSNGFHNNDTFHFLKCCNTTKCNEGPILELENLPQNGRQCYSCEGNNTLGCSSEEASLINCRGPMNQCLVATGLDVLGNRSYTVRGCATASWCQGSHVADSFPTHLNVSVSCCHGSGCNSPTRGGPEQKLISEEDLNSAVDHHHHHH
Source text: as §1, §2

[5] = molecular target: T5, lane 2: murine DI/DII-human DIII uPAR chimera (His-tagged); assay: as above
T5 construct: The sheet prints only the lane number; also called Murine D1D2/Human D3
T5 uPAR ECD chimera: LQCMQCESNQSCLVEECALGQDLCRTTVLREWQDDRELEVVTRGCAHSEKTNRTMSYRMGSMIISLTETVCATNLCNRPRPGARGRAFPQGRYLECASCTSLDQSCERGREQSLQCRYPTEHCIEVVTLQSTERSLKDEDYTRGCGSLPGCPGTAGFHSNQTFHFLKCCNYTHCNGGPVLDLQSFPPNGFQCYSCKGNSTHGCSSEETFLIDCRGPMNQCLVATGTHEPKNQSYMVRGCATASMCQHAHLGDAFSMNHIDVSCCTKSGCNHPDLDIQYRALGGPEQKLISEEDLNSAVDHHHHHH
Source text: as §1, §2

[6] = molecular target: T6, cynomolgus monkey uPAR, cell-bound (cynomolgus monkey, UniProt Q9GK78 23-305); assay: FACS, GeoMean; cynomolgus uPAR expressed on 293T cells; antibody concentration not given
T6 construct: whole, on cells; also called cyno-uPAR
T6 sequence (Q9GK78 23-305): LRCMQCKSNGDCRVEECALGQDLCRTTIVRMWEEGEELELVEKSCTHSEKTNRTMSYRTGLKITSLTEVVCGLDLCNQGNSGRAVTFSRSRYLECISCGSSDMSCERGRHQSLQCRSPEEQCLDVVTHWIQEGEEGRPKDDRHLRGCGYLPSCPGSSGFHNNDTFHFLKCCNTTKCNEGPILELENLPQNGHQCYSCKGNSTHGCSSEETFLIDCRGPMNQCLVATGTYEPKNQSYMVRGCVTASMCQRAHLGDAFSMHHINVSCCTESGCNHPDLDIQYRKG

Kd [1]: 1090 pM
Kd [2]: 570 pM
koff [2]: 4.6e-05 s⁻¹
kon [2]: 81000 M⁻¹ s⁻¹
binding result [3]: no binding
binding result [4]: no binding
binding result [5]: no binding
B1: fully human monoclonal antibody 2.6.1 (ATCC Accession Number PTA-7475) (antibody, V domains shown)
VH: EVQLVESGGGLIQPGGSLRLSCAASGFTVITNYMNWVRQAPGKGLEWVSIIYTGGSTSYADSVKGRFTVSRDNSKNTLYLHMNSLRVEDTAVYYCAREIAVAGYYGMDVWGQGTTVTVS
VL: DIQMTQSPSSLSASVGDRVTITCRASQGIRNDLGWYQQKPGKAPKRLIYAASSLQSGVPSRFSGSGSGTEFTLTISSLQPEDFATYYCLQHNSYPLTFGGGTRVEIK
notes: also called mAb 2.6.1

binding result [6]: binds
Kd [2]: 1500 pM
koff [2]: 0.00016 s⁻¹
kon [2]: 110000 M⁻¹ s⁻¹
binding result [3]: no binding
binding result [4]: no binding
binding result [5]: no binding
B2: fully human monoclonal antibody 4.18.1 (ATCC Accession Number PTA-7476) (antibody, V domains shown)
VH: EVQLVESGGGLIQPGGSLRLSCAASGFTVRNNYMNWVRQAPGKGLEWVSVIYTGGSTYYADSVKGRFTISRDNSRNTLYLQMNSLRAEDTAVYYCAREGAVAGFDYWGQGTLVTVSL
VL: EIVMTQFPATLSMSPGERATLSCRASQSVSSSLAWYQQTPGQAPRLLIYGASTRSTGFPARFSGIGSGTEFTLTISSLQSEDFAVYYCQQYGNWPLTFGQGTRLEIK

Kd [1]: 346 pM
Kd [2]: 310 pM
koff [2]: 4.3e-05 s⁻¹
kon [2]: 140000 M⁻¹ s⁻¹
binding result [3]: binds
binding result [4]: no binding
binding result [5]: no binding
B3: fully human monoclonal antibody 2.19.2 (ATCC Accession Number PTA-7474) (antibody, V domains shown)
VH: QVQLVESGGGVVQPGRSLRLSCAASGFTFSSYGMHWVRQAPGKGLEWVAVIWYDGSNKYYADSVKGRFTISRDNSKNTLYLQMNSLRAEDTAVYYCARDQHIVVVTAILDYWGQGTLVTVSS
VL: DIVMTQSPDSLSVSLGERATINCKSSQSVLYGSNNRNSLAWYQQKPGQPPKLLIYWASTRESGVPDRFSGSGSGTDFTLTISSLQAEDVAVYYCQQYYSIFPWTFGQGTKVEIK

Reference: patent US20080152587A1 (Amgen, published 2008)
